Experimental data published in patent US20040120954A1, “Regulation of mt1-mmp activity” (priority 2000, published 2004).

Experiments:
[1] = tested on: MT1-MMP; test: In situ gelatin degrading assay (DQ gelatin or Alexa488-conjugated gelatin); type: cell-based, human; conditions: DQ gelatin; CHO-K1 (FIG. 13) or COS1 cells (FIG. 22)
Experimental: (§1) Two different in situ gelatin degrading assays were performed. One used DQ™ gelatin (Molecular Probes, Inc., OR, USA). DQ gelatin is a fluorescence-quenched gelatin substrate, and will fluoresce upon proteolytic cleavage. Glass cover slips were coated with 5% DQ™ gelatin in a 10 mg/ml unlabeled gelatin solution, and dried. Transfected cells were cultured on the cover slip in a humidified chamber for 16 hrs. The cells were then fixed with 3% para-formaldehyde and the degraded areas were visualized as those showing fluorescence.
(§2) The other assay used Alexa488-conjugated gelatin made with an Alexa488-labeling kit (Molecular Probes). The bottom surfaces of 4-well chamber slides (Nunc) were coated with Alexa488-conjugated gelatin according to the method of Yana, I. and Weiss, S. J., Mol. Biol. Cell, 11, 2387-2401, 2000. Transfected COS1 cells were cultured in the chamber slides for 16 hrs in a humidified culture incubator. The cells were then fixed with 3% para-formaldehyde in PBS, and the degraded area was analyzed under a fluorescence microscope. The degraded area was visualized as a dark, non-fluorescent area. Fluorescence images were analyzed using confocal microscopy (BioRad).
(§3) Next, to determine if MT1PEX-F affects the catalytic activity of MT1-MMP on the cell surface or not, tests for gelatin degrading activity and binding capacity to TIMP-2 were conducted using cells transfected in the same incubator. As shown in FIGS. 12 through 14, CHO-K1 cells were transfected with an expression vector for MT1-F, MT1-F/MT1PEX-F or MT1Cat-F, or a vector alone (Mock). The cells were then treated with trypsin, and separately seeded to: DQ™ gelatin-coated cover slips for testing the proteolytic activity (FIG. 13); and 24-well plates for TIMP-2 binding assay (FIG. 12) and for the activation of proMMP-2 (FIG. 14). Transfected cells on the DQ™ gelatin-coated cover slip as shown in FIG. 13 were incubated in a medium at 37° C. for 18 hrs, and the generated fluorescence was analyzed using confocal microscopy. Transfected cells on the 24-well plate as shown in FIG. 12 were incubated with 25 nM ^125I-labeled TIMP-2 in the presence or absence of BB-94 (50 μM) at 0° C. for 1 hr. MT1-MMP specific binding was calculated by subtracting the datum obtained in the presence of BB-94 (50 μM) from each datum derived from the corresponding experiments. Identically transfected cells on the 24-well plate as shown in FIG. 14 were subjected to the reaction with purified proMMP-2 in a serum-free medium at 37° C. for 18 hrs. The cells and culture supernatants were respectively subjected to Western blotting analysis using a monoclonal anti-FLAG M2 antibody, and gelatin zymography analysis. […] DQ™ gelatin is a fluorescence-quenched gelatin, which fluoresces upon proteolytic cleavage. […]

[2] = target: T1, MT1-MMP (Homo sapiens, UniProt P50281); test: as above; type: cell-based; conditions: COS1 cells co-transfected with MT1-MMP, Alexa488-labeled gelatin (FIG. 30)
T1 construct: expressed in transfected cells
Experimental: as §1, §2, §3

[3] = target: T2, proMMP-2 (Homo sapiens, UniProt P08253); test: ProMMP-2 binding assay on transfected COS1 cells; type: cell-based; conditions: COS1 cells co-transfected with MT1-MMP (FIG. 29)
T2 construct: made in house; host or cells: HighFive insect cells infected with recombinant baculovirus; purified from culture supernatant
T2 sequence (P08253 30-660 limits assumed): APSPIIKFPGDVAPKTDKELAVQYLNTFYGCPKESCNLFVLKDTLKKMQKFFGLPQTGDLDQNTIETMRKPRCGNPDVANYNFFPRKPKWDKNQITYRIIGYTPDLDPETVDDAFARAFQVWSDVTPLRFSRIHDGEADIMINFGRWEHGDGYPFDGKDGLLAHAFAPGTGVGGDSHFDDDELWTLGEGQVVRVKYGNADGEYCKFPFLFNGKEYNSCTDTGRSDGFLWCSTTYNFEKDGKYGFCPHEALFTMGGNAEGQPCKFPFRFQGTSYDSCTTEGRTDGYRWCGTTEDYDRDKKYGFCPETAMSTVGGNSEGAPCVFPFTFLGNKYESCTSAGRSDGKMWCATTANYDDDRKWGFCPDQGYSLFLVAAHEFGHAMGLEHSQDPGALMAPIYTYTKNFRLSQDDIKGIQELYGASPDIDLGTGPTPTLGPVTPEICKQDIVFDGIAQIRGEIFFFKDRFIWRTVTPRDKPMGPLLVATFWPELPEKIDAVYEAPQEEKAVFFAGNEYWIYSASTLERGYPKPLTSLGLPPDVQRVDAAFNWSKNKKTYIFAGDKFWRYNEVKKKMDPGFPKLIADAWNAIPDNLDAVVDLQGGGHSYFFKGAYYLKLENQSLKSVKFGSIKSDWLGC
Experimental: Transfected COS1 cells were cultured in a 24-well plate (0.2×10^4/well). Forty-eight hours after transfection, the cells were washed three times with serum-free DMEM, and incubated with purified proMMP-2 (2 μg/ml) in the serum-free DMEM at 25° C. for 1 hr. The cells were then washed three times with serum-free DMEM containing 5% dimethyl sulfoxide (DMSO) to remove free proMMP-2, and lysed in 50 μl of a non-reducing SDS-loading buffer. MMP-2 bound to the cells was analyzed by gelatin zymography.

effect on the proteolytic activity of MT1-MMP on the cell surface [2]	effect on proMMP-2 binding to the cell surface [3]	Substance	gelatin degrading (proteolytic) activity of cells expressing the mutant [1]
–	–	MT1Cat-F: PEX-deleted FLAG-tagged MT1-MMP (Δ Ile318-Gly535)	exhibited the gelatin degrading activity
did not affect the proteolytic activity	not affected	MT1PEX-F: Catalytic domain-deleted FLAG-tagged MT1-MMP (Δ Tyr112-Pro312), expressed by transfection	–
